# B1: ADH7-His6 (Limosilactobacillus reuteri subsp. reuteri) (protein)
# chain: MNRQFDFLMPSVNFFGPGVIAKIGDRAKMLNMHKPLIVTTEGLSKIDNGPVKQTVASLEKAGVDYAVFTGAEPNPKIRNVQAGKKMYQDENCDSIITVGGGSAHDCGKGIGIVLTNGDDISKLAGIETLKNPLPPLMAVNTTAGTGSELTRHAVITNEKTHLKFVVVSWRNIPLVSFNDPMLMLDIPKDITAATGCDAFVQAIEPYVSVDHNPITDSQCKEAIQLIQTALPEVVANGHNIEARTKMVEAEMLAGMAFNNANLGYVHAMAHQLGGQYDAPHGVCCALLLTTVEEYNLIACPERFAELAKVMGFDTTGLTLYEAAQKSIDGMREMCRLVGIPSSIKEIGAKPEDFEMMAKNALKDGNAFSNPRKGTVEDIVKLYQKAYDGIY
# notes: full length 390 residues (42181 Da), His6 tag from pET21a kept, E. coli BL21(DE3), Ni-NTA purified
# B2: PduQ-His6 (Limosilactobacillus reuteri subsp. reuteri) (protein)
# chain: MEKYSMPTRIYSGTDSLKELETLNNERILLVCDSFLPGSDTLKEIESHIKDNNKCEIFSDVVPDPPLDKIMEGVQQFLKLKPTIVIGIGGGSALDTGKGIRFFGEKLGKCKINEYIAIPTTSGTGSEVTNTAVISDTKEHRKIPILEDYLTPDCALLDPKLVMTAPKSVTAYSGMDVLTHALESLVAKDANLFTVALSEEAIDAVIKHLVECYRHGDNVDARKIVHEASNIAGTAFNIAGLGICHSIAHQLGANFHVPHGLANTMLLPYVIAYNAEHSEEALHKFAIAAKKAGIAAPGVGDRLAVKRLIAKIREMARQMNCPMTLQAFGVDPAKAEELADTVVANAKKDATFPGNPVVPSDNDLKMVYEAIIR
# notes: full length 373 residues (40361 Da), His6 tag from pET21a kept, E. coli BL21(DE3), Ni-NTA purified
# Assays:
# Assay in all cases: purified protein
# Type in all cases: biochemical, Limosilactobacillus reuteri
# [1] = substrate: O=CCCO; settings: 3-HPA reduction (standard 0.2 mM NADH), 50 mM potassium phosphate pH 7.0, 30°C, 3-HPA produced from glycerol by resting cells (equilibrates with hydrate and dimer), pH 7.0
# [2] = substrate: NC(=O)C1=CN([C@@H]2O[C@H](COP(=O)(O)OP(=O)(O)OC[C@H]3O[C@@H](n4cnc5c(N)ncnc54)[C@H](O)[C@@H]3O)[C@@H](O)[C@H]2O)C=CC1; settings: 3-HPA reduction (standard 100 mM 3-HPA), 50 mM potassium phosphate pH 7.0, 30°C, pH 7.0, varied: cofactor
# [3] = substrate: NC(=O)c1ccc[n+]([C@@H]2O[C@H](COP(=O)(O)OP(=O)(O)OC[C@H]3O[C@@H](n4cnc5c(N)ncnc54)[C@H](O)[C@@H]3O)[C@@H](O)[C@H]2O)c1; settings: 1,3-PDO oxidation (standard 500 mM 1,3-PDO), 50 mM Tris-HCl pH 9.0, 30°C, pH 9.0, varied: cofactor
Protein,Km [1] [mM],Vmax [1] [µmol/min/mg],kcat [1] [s⁻¹],kcat/Km [1] [M⁻¹ s⁻¹],Km ([2]; error exceeds value) [mM],Vmax ([2]; error exceeds value) [µmol/min/mg],kcat ([2]; error exceeds value) [s⁻¹],kcat/Km ([2]; error exceeds value) [M⁻¹ s⁻¹],Km [3] [mM],Vmax [3] [µmol/min/mg],kcat [3] [s⁻¹],kcat/Km [3] [M⁻¹ s⁻¹],Km [2] [mM],Vmax [2] [µmol/min/mg],kcat [2] [s⁻¹],kcat/Km [2] [M⁻¹ s⁻¹]
B1,9.9 ± 1.1,29.3,13.2 ± 3,1330,0.04 ± 0.12,33,11.3 ± 1.9,282000,1.2 ± 0.1,4.1,3.2 ± 0.9,2670,,,,
B2,14.5 ± 1.7,14.8,9.9 ± 0.6,640,,,,,0.8 ± 0.1,3.9,2.6 ± 0.1,3490,0.04 ± 0.01,12.6,8.5 ± 0.5,237000

# Source: article PMC5193401, “Redox Balance in Lactobacillus reuteri DSM20016: Roles of Iron-Dependent Alcohol Dehydrogenases in Glucose/ Glycerol Metabolism” (PLoS ONE, 2016)
